Test results: the RNAGym collection of RNA variant scans (doi:10.1073/pnas.2313332121)
This sample holds only a part of the variants without activity.

B1: TPR 5TU (parent)
chain: GGAUCUUCUCGAUCUAACAAAAAAGACAAAUCUGCCACAAAGCUUGAGAGCAUCUUCGGAUGCAGAGGCGGCAGCCUUCGGUGGCGCGAUAGCGCCAACGUUCUCAACUAUGACACGCAAAACGCGUGCUCCGUUGAAUGGAGUUUAUCAUG

Variants of: B1
Experiment: polymerase ribozyme fitness, log enrichment relative to wild type (log ratio); higher = more active; in vitro selection for triplet polymerase activity
Summary of the method: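 Both subunits of a heterodimeric triplet polymerase ribozyme were given their own mutant library, built by PCR and transcribed. Each library was annealed with a biotinylated primer, the partner subunit and triplets, incubated frozen at −7 °C, and its extended constructs gel-excised, captured on streptavidin beads and amplified by RT-PCR, all in one round done in triplicate. Fitness is the logarithm of genotype enrichment relative to wild-type enrichment, with replicates averaged by inverse-variance weighting. That logarithm is base 2, and Illumina-sequenced genotypes needed ≥10 input reads and ≥1 read per output.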

Going from GGAUCUUCUCGAUCUAACAAAAAAGACAAAUCUGCCACAAAGCUUGAGAACAUCUUCGGAUGCAGAGGCGGCAGCCUUCGGUGGCGCAAUAGCGCCAACGUUCUCAACUAUGACACGCAAAACGCGUGCUCCGUUGAAUGGAGUUUAUCAUG to GGAUCUUCUCGAUCUGACAAAAAAGACAAAUCUGCCACAUAGCUUGAGAGCAUCUUCGCAUGCAGAGGCGGCAGCCUUCGGUGGCGCGAUAGCGCCAACGUUCACAACUAUGACACGCAAAACGCGUGCUCCGUUGAAUGGAGUUUAUCAUG, the “polymerase ribozyme fitness (log ratio)” value rises from ≤ -4.2 to -1.85.

GGAUCUUCUCGAUCUAACAUAAAAGACAGAUCUGCCACAAAACUUGAGAGCAUCUUAGGAUGCAGAGGCGGCAGCCUUCGGUGGCGCGAUGGCCCCAACGUUCUCAACUAUGACACGCAAAACGCGUGCUCCGUUGAAUGGAGUUUAUCAUG and GGAUCUCCUCGAUCUAACAAAAAAGACAAAUCUGCCACAACGCUUGAGAGUAUGAUCAGAUGCAGAGGCGGCAGCGUUCGGUGGCGGGAUAGCGCCAACGUUAUCAACUAUGACACGCAAAACGUGUGCUCCGUUGAAUGGAGUUUAUCAUG cannot be ordered by “polymerase ribozyme fitness (log ratio)” value: ≤ -4.2 for the first, ≤ -4.2 for the second.

Going from GGAUCUUCUCGAUCUAACGAAAAAGACAAAUCUGUCACAAAGCUUGAGAGCAUCUUCGGAUGCAGAGGCGGCAGCCUUCGGUGGCGUGAUAGCGACAACGUUCUCAACUAUGACACGCAAAACGCGUGCUCCGUUGAAUGGAGUUUAUCAUG to GGAUCUUCUCGAUCUAACAAAAAAGACAAAUCUGCCACAAAGCUUGAGAGCAUCUACGGAUGCAGAGGCGGCAGCCUUCGGGGGCGCGAUAGCGCUAACGUUCUCAACUAUGACACGCAGAACGCGUGCUCCGUUGAAUGGAGUUUAUCAUG, the “polymerase ribozyme fitness (log ratio)” value rises from -2.49 to -0.394.

Compared with GGAUGUUCUCGAUCUAACAAAAAAGACAAAUCUGCCACAAAGCUUGAAAGCAUCUUCGGAAGCAGAGGCGGCAGCCUUCGGUGGCGCGAUAGCGCCAAGGUUCUCAACUAUGACACGCAAAACGCGUGCUCGUUUGAAUGGCGUUUAUCAUG, GGAUCUUCUCGAUCUAACAAAAAAGACAAAUCUGCCACAAAGCUUGAGAGCCUCUUCGGAUGCAGAGGCGGCAGCUUUCGGUGGCGCGAUAGCGCCAACGGUCUCAACUAUGACACGCAAAACGCGUGCUCCGUUGAAUGGAGUUUAUCAUG is higher in “polymerase ribozyme fitness (log ratio)” value: ≤ -4.2 for the first, -4.01 for the second.

Going from GGAUCUUCUCGAUCUAACAAAAAAGACAAAUCUGCCACAAAGCUUGAGUGCAUCUUCGGACGCAGAGGCAGCAGCCUUCGGUGGCGCGAUAUCGCCAACGUUCUCAACUAUGACACGCAAAACGCGUGCUCCGUUGAAUGGAGUUUAUCAUG to GGAUCUUAUCGAUCUAACAAAAAAGACAAAUCUGCCACAAAGCUUGAGAGCAUCUUCGGAUGCAGAGGCGGCAGCCUUCGGUGGCGCGAUAGCGCCAACGUUCUCAACUAUGACACGCAAAACGCGUGCUCCGUUGAAUGGAGUUUAUCAUG, the “polymerase ribozyme fitness (log ratio)” value rises from ≤ -4.2 to -2.84.

GGAUCUUCUCGAUCUAACAAAAAAGACAAAUCUGCCACAAAGCCUGAGAGUAUCUUCGGAUGCAGAGGCGGCAGCCUUCGGUGGCGCGAUAUCGCGAACGUGCUCAACUAUGACACGCAAAACGCGUCCUCCGUUGAAUGGAGUUUAUCAUG and GGAUCUUCUCGAUCUAACAAAAAAGACAAAUCUGCAACAAAGCUUGAGAGGAUCUUCGGAUGCAGAGGCGGCAGCCUUCGGUGGAGCGAUAGCGCCAACGUUCUCAACUAUGACACGCAAAACGCGUGCUCCGUUGAAUGGAGUUUAUCAUG cannot be ordered by “polymerase ribozyme fitness (log ratio)” value: ≤ -4.2 for the first, ≤ -4.2 for the second.

First: GGAUCUUCUCGAUCUAACAAAAAAGACAAAUCUGCCACAAAGCUUGAGAGCAUUUUCGGAUGCAGAGGCGGCAGCCUUCGGUGGCGCGAUAGCGCCAACGUUCUCAACUAUGACACGCAAAAUACGUGCUCCGUUGAAUGGAGCUUAUCAUG
Second: GGAUCUUCUCGAUCUAACAAAAAAGACAAAUCUGCCACAAAGCUUGAGACCAUCUUCGGAUGCAGAGGCGGCAGCCUUCGGUAGCGUGAUAGCGCCAACGUUCUCAACUAUGACACGCAAAACGCGUGCUCCGUUGAAUGUAGUUUAUCAUG
The “polymerase ribozyme fitness (log ratio)” value of the first is higher: -0.47 for the first, ≤ -4.2 for the second.

Compared with GGAUCUUCUCGAUCUAACAAAAAAGACAAAUCUGCCACAAAGCUUGAGAGCAUCUACGGAUGCAGAGGCGGCAGCCUUCGGUGGCGCGAUAGCGGCAGCGUUCUCAACUAUGACACGCAAAACGCGUGCUCCGUUGAAUGGAGUUUAUCAUG, GGAUCUUCUCGAUCUAACAAAAAAGACAAAUAUGCCACGAAGCUUGAGAUCAUCAUCGGAUGCAGAGGCGGCUGACUUCGGUGGCGCGAUAGCGCCAACGUUCUCAACUAUGACACGCAAAACGCGUGCUCCGUUGAUUGGAGUUUAUCAUG is lower in “polymerase ribozyme fitness (log ratio)” value: -1.91 for the first, ≤ -4.2 for the second.

Compared with GGAUCUUCUCGAUCUAACAAAAAAGACAAAUCUGCCACAAAGCUUGAGAGCAUCUUCGCAUGCAGAGGCGGCAGCCUUCGGUGGCGCGAUAGCGCCAACGUUCUCAACUAUGACACGCAAAACGCGUGCUCCGUUGAAUGGAGUUCAUCAUG, GGAUCUUCUCGAUCUAACAAAAAAGACAAAUCUGCCACAAAGCUUGAGAGCAUCUUCGGAUGCAGAGGCGGUAGCCUACGGUGACGCGAUAGCGCCAACGUUCUCAACUAUGACACGCAAAACGCGUGCUCCGUUGAAUGGAGUUUAUCAUG is lower in “polymerase ribozyme fitness (log ratio)” value: 0.716 for the first, ≤ -4.2 for the second.

With GGAUCUUCUCGAUCUAACAAAAAAGACAAAUCUGCCACAAAGCUUGAGCCCAUCUUCGGAUGCAGAGGCGGCAGCCUCCGGUGGCGCGAUAGCGCCAACGUUCUCAACUAUGACACGCAAAACGCGUGCUCCGUUGAAUCGAGUUUAUCAUG the “polymerase ribozyme fitness (log ratio)” value was ≤ -4.2.
